Experimental data published in patent US20170355757A1 (Regeneron, published 2017).
Values belong to the binder of their own block, whether it stands above or below them.

Key:
Human C5 [1] = target: T1, Human C5 (human, UniProt P01031 19-1676); test: SPR, mAb captured by anti-hFc, 37C
T1 construct: The natural protein has a beta and an alpha chain; also called complement factor 5; complement component 5
Protocol: (§1) Equilibrium dissociation constants (KD values) for C5 binding to purified anti-C5 antibodies were determined using a real-time surface plasmon resonance biosensor assay on a Biacore T200 instrument. The Biacore sensor surface was derivatized by amine coupling with a monoclonal mouse anti-human Fc antibody (GE Healthcare, # BR-1008-39) to capture anti-C5 antibodies expressed with human Fc constant regions. Biacore binding studies were conducted in HBST running buffer (0.01M HEPES pH 7.4, 0.15M NaCl, 3 mM EDTA, 0.05% v/v Surfactant P20).
(§2) Human C5 was obtained from a commercial source (EMD). Other C5 reagents were expressed with a C-terminal myc-myc-hexahistidine tag (subsequently referred to as C5-mmh). […] Association of all the C5 reagents to each of the captured monoclonal antibodies was monitored for 3 minutes and their dissociation in HBST running buffer was monitored for 8 minutes. All the binding kinetics experiments were performed at either 25° C. or 37° C. Kinetic association (kₐ) and dissociation (kd) rate constants were determined by fitting the real-time sensorgrams to a 1:1 binding model using Scrubber 2.0c curve fitting software. Binding dissociation equilibrium constants (KD) and dissociative half-lives (t %) were calculated from the kinetic rate constants as: KD (M)=kd/kₐ and t_{1/2} (min)=In2/(60×kd)

monkey C5-mmh = target: T2, monkey C5-mmh (monkey, UniProt P01031 19-1676 (human entry), limits assumed); test: SPR, mAb captured by anti-hFc, 25C
T2 construct: Expressed with a C-terminal myc-myc-hexahistidine tag
T2 chain: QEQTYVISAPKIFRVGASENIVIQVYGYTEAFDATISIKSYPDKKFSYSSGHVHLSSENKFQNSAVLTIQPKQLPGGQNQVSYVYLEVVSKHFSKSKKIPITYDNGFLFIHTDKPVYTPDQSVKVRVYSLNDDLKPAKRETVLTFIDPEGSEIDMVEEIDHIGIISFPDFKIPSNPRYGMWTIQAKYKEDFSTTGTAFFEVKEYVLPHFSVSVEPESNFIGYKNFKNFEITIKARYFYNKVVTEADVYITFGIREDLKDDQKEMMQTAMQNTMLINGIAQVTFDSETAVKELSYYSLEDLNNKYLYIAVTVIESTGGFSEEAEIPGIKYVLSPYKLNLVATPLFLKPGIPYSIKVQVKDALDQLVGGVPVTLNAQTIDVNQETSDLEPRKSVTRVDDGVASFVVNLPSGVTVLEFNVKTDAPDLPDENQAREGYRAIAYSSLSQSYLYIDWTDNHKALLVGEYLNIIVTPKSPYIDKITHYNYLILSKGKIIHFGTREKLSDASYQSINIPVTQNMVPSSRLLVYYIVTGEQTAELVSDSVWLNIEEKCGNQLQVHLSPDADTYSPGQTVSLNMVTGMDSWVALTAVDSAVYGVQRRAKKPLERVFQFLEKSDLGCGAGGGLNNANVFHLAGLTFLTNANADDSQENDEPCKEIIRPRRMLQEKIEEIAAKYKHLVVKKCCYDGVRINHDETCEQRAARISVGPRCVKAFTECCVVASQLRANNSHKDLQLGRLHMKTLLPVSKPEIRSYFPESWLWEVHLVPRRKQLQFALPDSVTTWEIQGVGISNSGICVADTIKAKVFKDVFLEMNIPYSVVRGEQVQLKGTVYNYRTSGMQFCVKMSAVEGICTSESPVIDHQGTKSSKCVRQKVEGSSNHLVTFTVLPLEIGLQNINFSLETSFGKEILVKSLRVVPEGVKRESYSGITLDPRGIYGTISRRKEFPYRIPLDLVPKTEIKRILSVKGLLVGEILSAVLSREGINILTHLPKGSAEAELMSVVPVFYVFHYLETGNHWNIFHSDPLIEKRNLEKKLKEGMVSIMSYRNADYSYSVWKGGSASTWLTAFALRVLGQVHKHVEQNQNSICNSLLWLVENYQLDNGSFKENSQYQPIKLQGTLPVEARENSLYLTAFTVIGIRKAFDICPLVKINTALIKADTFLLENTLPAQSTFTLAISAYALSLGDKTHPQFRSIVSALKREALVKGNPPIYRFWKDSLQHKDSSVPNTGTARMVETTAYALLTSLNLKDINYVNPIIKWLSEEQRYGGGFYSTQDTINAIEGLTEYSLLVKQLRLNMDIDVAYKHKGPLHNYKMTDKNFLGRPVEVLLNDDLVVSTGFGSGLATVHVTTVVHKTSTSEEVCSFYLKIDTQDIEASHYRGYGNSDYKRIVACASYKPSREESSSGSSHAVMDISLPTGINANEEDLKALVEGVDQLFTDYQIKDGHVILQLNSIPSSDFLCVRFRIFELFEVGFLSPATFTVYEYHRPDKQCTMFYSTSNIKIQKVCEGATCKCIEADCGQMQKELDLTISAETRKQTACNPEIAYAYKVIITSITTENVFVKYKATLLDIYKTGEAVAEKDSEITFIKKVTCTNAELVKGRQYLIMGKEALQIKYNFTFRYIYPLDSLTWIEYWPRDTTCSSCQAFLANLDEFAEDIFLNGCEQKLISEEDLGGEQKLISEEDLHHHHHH
Protocol: as §1, §2

Human C5 [2] = target: T1, Human C5; test: SPR, mAb captured by anti-hFc, 25C
Protocol: as §1, §2

B1: H4H12183P2 (antibody, human IgG4, V domains shown)
VH: QVQLQESGPALVKPSQTLSLTCTVSGGSIIRGSTYWSWVRQFPGKGLEWIGYSYYSGTAYYNPSLESRATISVDTSKNQFSLNLKSVTAADTAVYYCTREIGVAGLFDIWGQGTLVTVSS
VL: not shown
100 nM Human C5 Bound (RU) (Human C5 [1]): 30 RU
Kd (Human C5 [1]): 5.81 nM
koff (Human C5 [1]): 0.00025 s⁻¹
kon (Human C5 [1]): 43000 M⁻¹ s⁻¹
t½ (Human C5 [1]): 46 min
100 nM monkey C5-mmh Bound (RU) (monkey C5-mmh): 23 RU
Kd (monkey C5-mmh): 10.1 nM
koff (monkey C5-mmh): 0.000494 s⁻¹
kon (monkey C5-mmh): 48800 M⁻¹ s⁻¹
t1/2 (monkey C5-mmh): 23 min
100 nM Human C5 Bound (RU) (Human C5 [2]): 50 RU
Kd (Human C5 [2]): 0.163 nM
koff (Human C5 [2]): 2.7e-05 s⁻¹
kon (Human C5 [2]): 166000 M⁻¹ s⁻¹
t½ (Human C5 [2]): 427 min

B4: H4H12166P2 (antibody, human IgG4, V domains shown)
VH: QVQLQESGPGLVKPSETLSLTCTVSGDSVSSSYWTWIRQPPGKGLEWIGYIYYSGSSNYNPSLKSRATISVDTSKNQFSLKLSSVTAADTAVYYCAREGNVDTTMIFDYWGQGTLVTVSS
VL: AIQMTQSPSSLSASVGDRVTITCRASQGIRNDLGWYQQKPGKAPKLLIYAASSLQSGVPSRFAGRGSGTDFTLTISSLQPEDFATYYCHQDFNYPWTFGQGTKVEIK
notes: human IgG4 Fc with S108P hinge mutation
100 nM Human C5 Bound (RU) (Human C5 [1]): 110 RU
Kd (Human C5 [1]): 1.29 nM
koff (Human C5 [1]): 0.00123 s⁻¹
kon (Human C5 [1]): 950000 M⁻¹ s⁻¹
t½ (Human C5 [1]): 9 min
100 nM monkey C5-mmh Bound (RU) (monkey C5-mmh): 71 RU
Kd (monkey C5-mmh): 10.5 nM
koff (monkey C5-mmh): 0.00316 s⁻¹
kon (monkey C5-mmh): 300000 M⁻¹ s⁻¹
t1/2 (monkey C5-mmh): 4 min
100 nM Human C5 Bound (RU) (Human C5 [2]): 95 RU
Kd (Human C5 [2]): 0.438 nM
koff (Human C5 [2]): 0.000361 s⁻¹
kon (Human C5 [2]): 826000 M⁻¹ s⁻¹
t½ (Human C5 [2]): 32 min

The remaining lines, values ahead:

100 nM Human C5 Bound (RU) (Human C5 [1]): 55 RU
Kd (Human C5 [1]): 1.4 nM
koff (Human C5 [1]): 0.000415 s⁻¹
kon (Human C5 [1]): 297000 M⁻¹ s⁻¹
t½ (Human C5 [1]): 28 min
100 nM monkey C5-mmh Bound (RU) (monkey C5-mmh): 92 RU
Kd (monkey C5-mmh): 0.199 nM
koff (monkey C5-mmh): 5.21e-05 s⁻¹
kon (monkey C5-mmh): 262000 M⁻¹ s⁻¹
t1/2 (monkey C5-mmh): 222 min
100 nM Human C5 Bound (RU) (Human C5 [2]): 119 RU
Kd (Human C5 [2]): 0.129 nM
koff (Human C5 [2]): 6.79e-05 s⁻¹
kon (Human C5 [2]): 525000 M⁻¹ s⁻¹
t½ (Human C5 [2]): 170 min
B2: H4H12170P (antibody, human IgG4, V domains shown)
VH: QVQLVESGGGVVQPGRSLRLSCAASGFTFSGYGMHWVRQAPGKGLEWVALIWLDGSNDYYADSVKGRFTISRDNSKNTLYLQMNRLRAEDTAVYYCARDGPVAAIPDYWGQGTLVTVSS
VL: DIQMTQSPSTLSASVGDRVTITCRASQSISRWLAWYQLKPGKAPKLLIYKASSLESGVPSRFSGSGSGTDFTLTISSLQPDDFATYYCQQYNTYSYTFGQGTKLEIK

100 nM Human C5 Bound (RU) (Human C5 [1]): 406 RU
Kd (Human C5 [1]): 0.469 nM
koff (Human C5 [1]): 0.000156 s⁻¹
kon (Human C5 [1]): 333000 M⁻¹ s⁻¹
t½ (Human C5 [1]): 74 min
100 nM monkey C5-mmh Bound (RU) (monkey C5-mmh): 247 RU
Kd (monkey C5-mmh): 3.11 nM
koff (monkey C5-mmh): 0.000489 s⁻¹
kon (monkey C5-mmh): 157000 M⁻¹ s⁻¹
t1/2 (monkey C5-mmh): 24 min
100 nM Human C5 Bound (RU) (Human C5 [2]): 341 RU
Kd (Human C5 [2]): 0.15 nM
koff (Human C5 [2]): 3.31e-05 s⁻¹
kon (Human C5 [2]): 220000 M⁻¹ s⁻¹
t½ (Human C5 [2]): 349 min
B3: H4H11686N (antibody, human IgG4, V domains shown)
VH: QVQLVESGGGLVKPGGSLRLSCAASGFTFSDYYMSWIRQAPGKGLEWVSYISSSGNTIKYADSMKGRFTISRDNAKKSLFVEMNSLRAEDTAVYYCARYKSSSDYFDHWGQGTLVTVSS
VL: EIVLTQSPATLSLSPGERATLSCRASQSVRSYLAWYQQKPGQAPRLLIYDASNRATAIPARFSGSGSGTDFTLTISSLEPEDLAVYYCQQSGNWPLTFGGGTKVEIK
notes: also called H2M11686N
